Test results from US20220177587A1, “METHODS AND USES OF VARIANT CD80 FUSION PROTEINS AND RELATED CONSTRUCTS” (Alpine Immune Sciences, Inc., priority 2018, published 2022).

Tests used:
huCTLA4 = huCTLA4 (Homo sapiens, UniProt P16410); experiment: Flow binding to CHO cells stably expressing CTLA4; parameters: huCTLA4 and huPD-L1, full-length mammalian surface expression constructs were generated; expressed in transfected cells; host or cells: CHO cells, lentiviral transduction, sorted to >98% purity; settings: Table E20; for CTLA4 MFI at 33.3 nM: CHO cells stably expressing CTLA4; for CTLA4 Fold change to WT CD80: MFI at 33.3 nM relative to CD80 WT IgV-Fc
How it was run: (§1)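 Binding EC50 and PE mean fluorescence intensity derived by flow cytometry using PE-labelled anti-human Fc secondary. Target cells were CTLA4- or PD-L1-transfected CHO lines and CD28-expressing Jurkat/IL2 reporter cells, stained with fusion proteins on ice for 45 min following BSA blocking.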

CD28 [1] = target: T1, CD28 (Homo sapiens, UniProt P10747); experiment: Flow binding to Jurkat/IL2 reporter cells (CD28); parameters: host or cells: Jurkat cells expressing an IL-2-luciferase reporter; settings: Table E20; for CD28 MFI at 33.3 nM: Jurkats (CD28); for CD28 Fold change to WT CD80: MFI at 33.3 nM relative to CD80 WT IgV-Fc
How it was run: as §1

huPD-L1 = huPD-L1 (Homo sapiens, UniProt Q9NZQ7); experiment: Flow binding to CHO cells stably expressing PD-L1; parameters: huCTLA4 and huPD-L1, full-length mammalian surface expression constructs were generated; expressed in transfected cells; host or cells: CHO cells, lentiviral transduction, sorted to >98% purity; settings: Table E20; for PD-L1 MFI at 33.3 nM: CHO cells stably expressing PD-L1; for PD-L1 Fold change to WT CD80: MFI at 33.3 nM relative to CD80 WT IgV-Fc; for Ratio of PDL1:CD28: ratio of MFI at 33.3 nM
How it was run: as §1

CD28 [2] = target: T1, CD28; experiment: Jurkat/IL2 + CHO/OKT3 +/- PD-L1 reporter assay: PD-L1-dependent CD28 costimulation; type: cell-based; parameters: host or cells: Jurkat cells expressing an IL-2-luciferase reporter; settings: Table E22, Jurkat/IL2 + CHO/OKT3/PD-L1; for Fold Increase over WT CD80-IgV-Fe: 5.0 nM
How it was run: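 Readout is relative luminescence from lysed cocultures: test protein given 15 min at room temperature to Jurkat cells before adding CHO artificial APCs displaying OKT3 alone or OKT3 plus PD-L1, then 5 h at 37 °C, 5% CO2.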

Chain of huPD-L1 (Q9NZQ7 19-290): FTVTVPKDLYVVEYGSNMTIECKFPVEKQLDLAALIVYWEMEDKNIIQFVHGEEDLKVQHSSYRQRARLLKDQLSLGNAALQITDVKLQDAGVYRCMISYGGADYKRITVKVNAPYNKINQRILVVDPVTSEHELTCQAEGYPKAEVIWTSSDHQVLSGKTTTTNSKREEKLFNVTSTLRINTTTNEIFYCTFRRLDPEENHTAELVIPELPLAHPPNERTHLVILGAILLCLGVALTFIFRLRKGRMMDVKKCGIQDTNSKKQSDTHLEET
Chain of huCTLA4 (P16410 36-223): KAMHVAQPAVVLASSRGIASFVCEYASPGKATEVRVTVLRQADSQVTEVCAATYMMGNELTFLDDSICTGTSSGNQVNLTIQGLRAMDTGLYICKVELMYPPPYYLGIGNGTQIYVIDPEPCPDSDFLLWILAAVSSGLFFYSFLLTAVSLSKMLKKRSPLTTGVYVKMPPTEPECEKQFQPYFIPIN

B1: M47L/V68M/A71G/D90G (protein)
chain: VIHVTKEVKEVATLSCGHNVSVEELAQTRIYWQKEKKMVLTMMSGDLNIWPEYKNRTIFDITNNLSIMILGLRPSDEGTYECVVLKYEKGAFKREHLAEVTLSVKAD
- CTLA4 MFI at 33.3 nM (huCTLA4): 17418
- CTLA4 Fold change to WT CD80 (huCTLA4): 12.8 fold
- CD28 MFI at 33.3 nM (CD28 [1]): 3610
- CD28 Fold change to WT CD80 (CD28 [1]): 82.2 fold
- PD-L1 MFI at 33.3 nM (huPD-L1): 31114
- PD-L1 Fold change to WT CD80 (huPD-L1): 713.6 fold
- Ratio of PDL1:CD28 (huPD-L1): 8.6
- Fold Increase over WT CD80-IgV-Fe (CD28 [2]): 1.98 fold
- Relative Luciferase Units (RLU), CD80 Conc 5.0 nM (CD28 [2]): 771 RLU

B2: E35D/M47L/A71G/D90G (protein)
chain: VIHVTKEVKEVATLSCGHNVSVEELAQTRIYWQKDKKMVLTMMSGDLNIWPEYKNRTIFDITNNLSIVILGLRPSDEGTYECVVLKYEKGAFKREHLAEVTLSVKAD
- CTLA4 MFI at 33.3 nM (huCTLA4): 20921
- CTLA4 Fold change to WT CD80 (huCTLA4): 15.4 fold
- CD28 MFI at 33.3 nM (CD28 [1]): 1331
- CD28 Fold change to WT CD80 (CD28 [1]): 30.3 fold
- PD-L1 MFI at 33.3 nM (huPD-L1): 12073
- PD-L1 Fold change to WT CD80 (huPD-L1): 276.9 fold
- Ratio of PDL1:CD28 (huPD-L1): 9.1
- Fold Increase over WT CD80-IgV-Fe (CD28 [2]): 2.01 fold
- Relative Luciferase Units (RLU), CD80 Conc 5.0 nM (CD28 [2]): 784 RLU

B3: A26E/E35D/M47L/D90G (protein)
chain: VIHVTKEVKEVATLSCGHNVSVEELEQTRIYWQKDKKMVLTMMSGDLNIWPEYKNRTIFDITNNLSIVILALRPSDEGTYECVVLKYEKGAFKREHLAEVTLSVKAD
- CTLA4 MFI at 33.3 nM (huCTLA4): 18167
- CTLA4 Fold change to WT CD80 (huCTLA4): 13.4 fold
- CD28 MFI at 33.3 nM (CD28 [1]): 1550
- CD28 Fold change to WT CD80 (CD28 [1]): 35.3 fold
- PD-L1 MFI at 33.3 nM (huPD-L1): 9577
- PD-L1 Fold change to WT CD80 (huPD-L1): 219.7 fold
- Ratio of PDL1:CD28 (huPD-L1): 6.2
- Fold Increase over WT CD80-IgV-Fe (CD28 [2]): 2.16 fold
- Relative Luciferase Units (RLU), CD80 Conc 5.0 nM (CD28 [2]): 843 RLU

B4: H18Y/A26E/V68M/D90G (protein)
chain: VIHVTKEVKEVATLSCGYNVSVEELEQTRIYWQKEKKMVLTMMSGDMNIWPEYKNRTIFDITNNLSIMILALRPSDEGTYECVVLKYEKGAFKREHLAEVTLSVKAD
- CTLA4 MFI at 33.3 nM (huCTLA4): 25794
- CTLA4 Fold change to WT CD80 (huCTLA4): 19.0 fold
- CD28 MFI at 33.3 nM (CD28 [1]): 2394
- CD28 Fold change to WT CD80 (CD28 [1]): 54.5 fold
- PD-L1 MFI at 33.3 nM (huPD-L1): 12845
- PD-L1 Fold change to WT CD80 (huPD-L1): 294.6 fold
- Ratio of PDL1:CD28 (huPD-L1): 5.4
- Fold Increase over WT CD80-IgV-Fe (CD28 [2]): 2.90 fold
- Relative Luciferase Units (RLU), CD80 Conc 5.0 nM (CD28 [2]): 1131 RLU

B5: E35D/M47L/V68M/D90G (protein)
chain: VIHVTKEVKEVATLSCGHNVSVEELAQTRIYWQKDKKMVLTMMSGDLNIWPEYKNRTIFDITNNLSIMILALRPSDEGTYECVVLKYEKGAFKREHLAEVTLSVKAD
- CTLA4 MFI at 33.3 nM (huCTLA4): 27607
- CTLA4 Fold change to WT CD80 (huCTLA4): 20.3 fold
- CD28 MFI at 33.3 nM (CD28 [1]): 3414
- CD28 Fold change to WT CD80 (CD28 [1]): 77.8 fold
- PD-L1 MFI at 33.3 nM (huPD-L1): 23482
- PD-L1 Fold change to WT CD80 (huPD-L1): 538.6 fold
- Ratio of PDL1:CD28 (huPD-L1): 6.9
- Fold Increase over WT CD80-IgV-Fe (CD28 [2]): 1.82 fold
- Relative Luciferase Units (RLU), CD80 Conc 5.0 nM (CD28 [2]): 711 RLU

B6: H18Y/E35D/A71G/D90G (protein)
chain: VIHVTKEVKEVATLSCGYNVSVEELAQTRIYWQKDKKMVLTMMSGDMNIWPEYKNRTIFDITNNLSIVILGLRPSDEGTYECVVLKYEKGAFKREHLAEVTLSVKAD
- CTLA4 MFI at 33.3 nM (huCTLA4): 25886
- CTLA4 Fold change to WT CD80 (huCTLA4): 19.0 fold
- CD28 MFI at 33.3 nM (CD28 [1]): 1310
- CD28 Fold change to WT CD80 (CD28 [1]): 29.8 fold
- PD-L1 MFI at 33.3 nM (huPD-L1): 8524
- PD-L1 Fold change to WT CD80 (huPD-L1): 195.5 fold
- Ratio of PDL1:CD28 (huPD-L1): 6.5
- Fold Increase over WT CD80-IgV-Fe (CD28 [2]): 3.81 fold
- Relative Luciferase Units (RLU), CD80 Conc 5.0 nM (CD28 [2]): 1487 RLU

B7: A26E/E35D/V68M/D90G (protein)
chain: VIHVTKEVKEVATLSCGHNVSVEELEQTRIYWQKDKKMVLTMMSGDMNIWPEYKNRTIFDITNNLSIMILALRPSDEGTYECVVLKYEKGAFKREHLAEVTLSVKAD
- CTLA4 MFI at 33.3 nM (huCTLA4): 13879
- CTLA4 Fold change to WT CD80 (huCTLA4): 10.2 fold
- CD28 MFI at 33.3 nM (CD28 [1]): 1683
- CD28 Fold change to WT CD80 (CD28 [1]): 38.3 fold
- PD-L1 MFI at 33.3 nM (huPD-L1): 6987
- PD-L1 Fold change to WT CD80 (huPD-L1): 160.3 fold
- Ratio of PDL1:CD28 (huPD-L1): 4.2
- Fold Increase over WT CD80-IgV-Fe (CD28 [2]): 2.23 fold
- Relative Luciferase Units (RLU), CD80 Conc 5.0 nM (CD28 [2]): 871 RLU

B8: A26E/M47L/A71G/D90G (protein)
chain: VIHVTKEVKEVATLSCGHNVSVEELEQTRIYWQKEKKMVLTMMSGDLNIWPEYKNRTIFDITNNLSIVILGLRPSDEGTYECVVLKYEKGAFKREHLAEVTLSVKAD
- CTLA4 MFI at 33.3 nM (huCTLA4): 21955
- CTLA4 Fold change to WT CD80 (huCTLA4): 16.2 fold
- CD28 MFI at 33.3 nM (CD28 [1]): 1955
- CD28 Fold change to WT CD80 (CD28 [1]): 44.5 fold
- PD-L1 MFI at 33.3 nM (huPD-L1): 13204
- PD-L1 Fold change to WT CD80 (huPD-L1): 302.8 fold
- Ratio of PDL1:CD28 (huPD-L1): 6.8
- Fold Increase over WT CD80-IgV-Fe (CD28 [2]): 2.12 fold
- Relative Luciferase Units (RLU), CD80 Conc 5.0 nM (CD28 [2]): 827 RLU

B9: H18Y/V68M/A71G/D90G (protein)
chain: VIHVTKEVKEVATLSCGYNVSVEELAQTRIYWQKEKKMVLTMMSGDMNIWPEYKNRTIFDITNNLSIMILGLRPSDEGTYECVVLKYEKGAFKREHLAEVTLSVKAD
- CTLA4 MFI at 33.3 nM (huCTLA4): 22321
- CTLA4 Fold change to WT CD80 (huCTLA4): 16.4 fold
- CD28 MFI at 33.3 nM (CD28 [1]): 3414
- CD28 Fold change to WT CD80 (CD28 [1]): 77.8 fold
- PD-L1 MFI at 33.3 nM (huPD-L1): 30670
- PD-L1 Fold change to WT CD80 (huPD-L1): 703.4 fold
- Ratio of PDL1:CD28 (huPD-L1): 9.0
- Fold Increase over WT CD80-IgV-Fe (CD28 [2]): 2.04 fold
- Relative Luciferase Units (RLU), CD80 Conc 5.0 nM (CD28 [2]): 797 RLU

B10: H18Y/M47L/V68M/D90G (protein)
chain: VIHVTKEVKEVATLSCGYNVSVEELAQTRIYWQKEKKMVLTMMSGDLNIWPEYKNRTIFDITNNLSIMILALRPSDEGTYECVVLKYEKGAFKREHLAEVTLSVKAD
- CTLA4 MFI at 33.3 nM (huCTLA4): 19006
- CTLA4 Fold change to WT CD80 (huCTLA4): 14.0 fold
- CD28 MFI at 33.3 nM (CD28 [1]): 3795
- CD28 Fold change to WT CD80 (CD28 [1]): 86.4 fold
- PD-L1 MFI at 33.3 nM (huPD-L1): 21768
- PD-L1 Fold change to WT CD80 (huPD-L1): 499.3 fold
- Ratio of PDL1:CD28 (huPD-L1): 5.7
- Fold Increase over WT CD80-IgV-Fe (CD28 [2]): 2.14 fold
- Relative Luciferase Units (RLU), CD80 Conc 5.0 nM (CD28 [2]): 834 RLU

B11: H18Y/A26E/E35D/M47L (protein)
chain: VIHVTKEVKEVATLSCGYNVSVEELEQTRIYWQKDKKMVLTMMSGDLNIWPEYKNRTIFDITNNLSIVILALRPSDEGTYECVVLKYEKDAFKREHLAEVTLSVKAD
- CTLA4 MFI at 33.3 nM (huCTLA4): 23990
- CTLA4 Fold change to WT CD80 (huCTLA4): 17.7 fold
- CD28 MFI at 33.3 nM (CD28 [1]): 324
- CD28 Fold change to WT CD80 (CD28 [1]): 7.4 fold
- PD-L1 MFI at 33.3 nM (huPD-L1): 9951
- PD-L1 Fold change to WT CD80 (huPD-L1): 228.2 fold
- Ratio of PDL1:CD28 (huPD-L1): 30.7
- Fold Increase over WT CD80-IgV-Fe (CD28 [2]): 3.10 fold
- Relative Luciferase Units (RLU), CD80 Conc 5.0 nM (CD28 [2]): 1208 RLU
